Assay results from the RNAGym collection of RNA variant scans (doi:10.1021/acssynbio.7b00057).

B1: Pistol ribozyme (parent)
chain: GGGUCGUUGUUCCAUAAUCGCGUGGAUAUGGCACGCAAGUUUCUACCGGGCACCGUAAAUGUCCGACUGGAGCCGUUCGGGCGGCUAUAAACAGACCUCAGGCCCGAAGCGUGGCGGCACCUGCCGCCGGUGGUAAAAAAGAUCGGAAGAGCACACGUCU

Variants of: B1
Assay: aptazyme ON/OFF ratio, guanine; higher = stronger switching; co-transcriptional cleavage with and without guanine

Compared with U7G U8A G9U U11G C12U C13A, U7G U8C G9A U11C C12U C13A is higher in “aptazyme ON/OFF ratio” value: 1.1 for the first, 1.15 for the second.

Compared with U7C U8G G9A U10C U11C C12A C13U, U7C U8C G9U U10C U11C C12G C13G is higher in “aptazyme ON/OFF ratio” value: 1.06 for the first, 1.18 for the second.

Going from U7G U8C G9U C13A to U7C U8G U10G U11A C13A, the “aptazyme ON/OFF ratio” value falls from 1.36 to 1.18.

Compared with U8A G9U U10C U11A C12U C13G, U7A G9A U10C C12G C13G is higher in “aptazyme ON/OFF ratio” value: 1.1 for the first, 1.17 for the second.

First: U7A G9U U11A C12U C13U
Second: U7C U8C G9A U10A U11C C13A
The “aptazyme ON/OFF ratio” value of the first is higher: 1.22 for the first, 1.16 for the second.

Going from G9C U10A U11A C12U C13U to U7C U8C C13G, the “aptazyme ON/OFF ratio” value falls from 1.42 to 1.17.

Compared with U8C G9U U10G U11G, U7A U8G G9A U10C U11C C12A C13U is lower in “aptazyme ON/OFF ratio” value: 2.19 for the first, 1.04 for the second.

First: U8A G9A C12G C13G
Second: U7C G9A U10A U11A
The “aptazyme ON/OFF ratio” value of the first is higher: 1.2 for the first, 1.19 for the second.

Compared with U7C G9U U10C U11A C12G, U7G U8A U10A U11C C12A C13G is higher in “aptazyme ON/OFF ratio” value: 1.05 for the first, 1.25 for the second.

Compared with U7A U8A U10A U11G C13A, U8A G9C U10A U11A C12U C13U is higher in “aptazyme ON/OFF ratio” value: 1.16 for the first, 1.17 for the second.

First: U10A U11G C12U C13U
Second: U7A U8A G9C U11A C12A C13G
The “aptazyme ON/OFF ratio” value of the first is higher: 1.27 for the first, 1.18 for the second.

First: U7C U8G G9U U10C U11G C12G
Second: U7G G9A U10G U11A C12U C13G
The “aptazyme ON/OFF ratio” value of the first is higher: 1.21 for the first, 1.05 for the second.

First: U7C U8A G9U U10C C13U
Second: U7C U8G G9A U10C C12A C13U
The “aptazyme ON/OFF ratio” value of the first is higher: 1.8 for the first, 1.14 for the second.

First: U7C G9U U11G C13G
Second: U7C G9A U10C C12G
The “aptazyme ON/OFF ratio” value of the first is lower: 1.03 for the first, 1.2 for the second.

First: U7C U8A G9U U10G C12U C13U
Second: U8A G9U U10A C13A
The “aptazyme ON/OFF ratio” value of the first is higher: 1.27 for the first, 1.26 for the second.

Compared with U8C G9U U10G, U8A G9U U11C C12A C13A is lower in “aptazyme ON/OFF ratio” value: 2.84 for the first, 1.14 for the second.

Going from U7G U8G G9A U10G U11C C12U C13U to U8C U10C U11C C12A C13A, the “aptazyme ON/OFF ratio” value rises from 1.29 to 1.32.

Compared with U8C G9A U10A, U7G U8C G9C U11C C12G C13U is lower in “aptazyme ON/OFF ratio” value: 1.78 for the first, 1.11 for the second.

First: U7A G9A U10C U11C C12G C13U
Second: U7G U8C G9A U10C U11A C12G
The “aptazyme ON/OFF ratio” value of the first is lower: 1.04 for the first, 1.18 for the second.

First: U8G G9C U10A U11C C12U C13A
Second: U8C G9C C13A
The “aptazyme ON/OFF ratio” value of the first is higher: 1.09 for the first, 1.05 for the second.

Compared with U7G G9A U10A C12G C13U, U7G U8A U10G U11G C12G is higher in “aptazyme ON/OFF ratio” value: 1.25 for the first, 1.5 for the second.

Compared with U7C U8C G9A U10C C13A, U8C U10C U11A C12A C13G is lower in “aptazyme ON/OFF ratio” value: 1.47 for the first, 1.14 for the second.

First: U7A U8C G9U U10G C12G C13U
Second: U7G U8C U10A C12A C13U
The “aptazyme ON/OFF ratio” value of the first is lower: 1.28 for the first, 1.36 for the second.

Going from U7G U8A G9C U10G C12A C13A to U7A G9A U10C U11G C12G, the “aptazyme ON/OFF ratio” value rises from 1.06 to 1.3.

Going from U7A U8A G9C U11G C13G to U7C U8G G9A U10C U11C, the “aptazyme ON/OFF ratio” value falls from 1.1 to 1.03.

Compared with U7C G9A C12G C13U, U7C U8A G9C U11G C12U C13A is lower in “aptazyme ON/OFF ratio” value: 1.23 for the first, 1.18 for the second.

First: U10C U11A C13U
Second: U7A G9C C12A C13A
The “aptazyme ON/OFF ratio” value of the first is higher: 1.23 for the first, 1.07 for the second.

Going from U7A U8A G9A U11A C12U C13G to U7A G9A U10C U11G C12A, the “aptazyme ON/OFF ratio” value falls from 1.23 to 1.04.

Compared with U7A U8G G9A U10A C12U C13G, U7A U8A G9A U10A U11G C12G C13A is higher in “aptazyme ON/OFF ratio” value: 1.13 for the first, 1.25 for the second.

First: U7G G9U U10G U11C C13G
Second: U7A U8C G9U U10G U11A C13G
The “aptazyme ON/OFF ratio” value of the first is higher: 1.11 for the first, 1.08 for the second.

Going from U7C U8C G9A U11G C12G C13A to U7C U8C G9C U10A U11A C12U C13U, the “aptazyme ON/OFF ratio” value falls from 1.23 to 1.17.

Compared with U7C G9C C13G, U7G U8A G9A U10G U11C C12A is higher in “aptazyme ON/OFF ratio” value: 1.05 for the first, 1.13 for the second.

Compared with U10G U11G C12G C13U, U7C U8G G9U U10C U11A C13A is lower in “aptazyme ON/OFF ratio” value: 1.26 for the first, 1.24 for the second.

First: U7A U8G G9A U10A U11C C13A
Second: U7G U8G U10G C12U C13A
The “aptazyme ON/OFF ratio” value of the first is higher: 1.05 for the first, 1 for the second.

First: U7G U8C G9C U10A U11G C12G C13A
Second: U8G U10A U11G C12G C13U
The “aptazyme ON/OFF ratio” value of the first is lower: 1.08 for the first, 1.5 for the second.

Compared with U7G U8G U11G C12A C13G, U7C U8C C12A is higher in “aptazyme ON/OFF ratio” value: 1.21 for the first, 1.37 for the second.

Going from U7G U8C G9A U10A U11G C12U C13U to U7G U8G G9U U10A U11A C12A C13G, the “aptazyme ON/OFF ratio” value falls from 1.21 to 1.13.

First: U7G U8G G9A U10A C12G
Second: U7A U8A G9U U10C C13U
The “aptazyme ON/OFF ratio” value of the first is higher: 1.5 for the first, 1.2 for the second.

Going from U7G U8G G9U C12G to U8A G9A U10C C12U, the “aptazyme ON/OFF ratio” value rises from 1.18 to 1.24.

Compared with U7A U8A U10A U11A C13A, U7G U8C G9U U10A C13G is lower in “aptazyme ON/OFF ratio” value: 1.16 for the first, 1.08 for the second.

First: U7A U8A G9C U11G C12A C13G
Second: U7G U8A G9C U10C U11C C12U C13G
The “aptazyme ON/OFF ratio” value of the first is higher: 1.22 for the first, 1.04 for the second.

For U7C G9U U10G U11C, the “aptazyme ON/OFF ratio” value was 1.09.
